Assay results: the supplement of paper PMC9112550, “Optimization of the antimicrobial peptide Bac7 by deep mutational scanning” (BMC Biology, 2022)

System: Escherichia coli TOP10
Assay: shrunken log2 fold change of peptide-encoding DNA abundance (4.5 h post-induction vs induction); higher = less antimicrobial activity (less host growth inhibition)
Conditions: time post-induction: 4.5 h; library: site-saturation at positions 5, 18, 19, 20
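Also: peptides expressed intracellularly from a pBAD plasmid library in pooled LB shake-flask culture, induced with 0.3% L-arabinose, DNA abundance read by NGS, three biological replicates, DESeq2 with apeglm shrinkage.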

In the case of RRIRWRPPRLPRPRPRPQPNPRP, the “shrunken log2 fold change” value is reported as 0.127.
With RRIRVRPPRLPRPRPRPMPWPRP the “shrunken log2 fold change” value was 0.056.
In the case of RRIRERPPRLPRPRPRPSIVPRP, the “shrunken log2 fold change” value is reported as -0.443.
In the case of RRIRPRPPRLPRPRPRPEEKPRP, the “shrunken log2 fold change” value is reported as -0.0155.
In the case of RRIRFRPPRLPRPRPRPVNPPRP, the “shrunken log2 fold change” value is reported as -0.154.
For RRIRIRPPRLPRPRPRPEYVPRP, the “shrunken log2 fold change” value was -0.196.
For RRIRDRPPRLPRPRPRPDMVPRP, the “shrunken log2 fold change” value was 0.00109.
In the case of RRIRWRPPRLPRPRPRPAGDPRP, the “shrunken log2 fold change” value is reported as 0.363.
For RRIRGRPPRLPRPRPRPKGMPRP, the “shrunken log2 fold change” value was 0.442.
In the case of RRIRRRPPRLPRPRPRPPCTPRP, the “shrunken log2 fold change” value is reported as 1.59.
For RRIRGRPPRLPRPRPRPIVHPRP, the “shrunken log2 fold change” value was 0.342.
In the case of RRIRRRPPRLPRPRPRPLLTPRP, the “shrunken log2 fold change” value is reported as 0.399.
RRIRTRPPRLPRPRPRPKENPRP was tested, and the “shrunken log2 fold change” value was 0.15.
In the case of RRIRARPPRLPRPRPRPFMEPRP, the “shrunken log2 fold change” value is reported as 0.0746.
For RRIRARPPRLPRPRPRPVTCPRP, the “shrunken log2 fold change” value was 0.0514.
RRIRRRPPRLPRPRPRPTSKPRP was tested, and the “shrunken log2 fold change” value was 0.162.
RRIRRRPPRLPRPRPRPARPPRP was tested, and the “shrunken log2 fold change” value was 0.703.
For RRIRARPPRLPRPRPRPDLHPRP, the “shrunken log2 fold change” value was 0.474.
In the case of RRIRARPPRLPRPRPRPRFLPRP, the “shrunken log2 fold change” value is reported as 0.371.
In the case of RRIRSRPPRLPRPRPRPPDGPRP, the “shrunken log2 fold change” value is reported as 0.447.
With RRIRYRPPRLPRPRPRPSELPRP the “shrunken log2 fold change” value was -0.0343.
In the case of RRIRIRPPRLPRPRPRPLAFPRP, the “shrunken log2 fold change” value is reported as -0.302.
RRIRYRPPRLPRPRPRPMLRPRP was tested, and the “shrunken log2 fold change” value was -0.256.
In the case of RRIRGRPPRLPRPRPRPDEEPRP, the “shrunken log2 fold change” value is reported as 1.76.
With RRIRYRPPRLPRPRPRPPSDPRP the “shrunken log2 fold change” value was -0.185.
RRIRVRPPRLPRPRPRPTWFPRP was tested, and the “shrunken log2 fold change” value was 0.177.
In the case of RRIRARPPRLPRPRPRPCTRPRP, the “shrunken log2 fold change” value is reported as -0.00176.
In the case of RRIRYRPPRLPRPRPRPNARPRP, the “shrunken log2 fold change” value is reported as -0.0675.
For RRIRDRPPRLPRPRPRPAIKPRP, the “shrunken log2 fold change” value was 0.235.
RRIRSRPPRLPRPRPRPMLIPRP was tested, and the “shrunken log2 fold change” value was -0.131.
In the case of RRIRRRPPRLPRPRPRPDGVPRP, the “shrunken log2 fold change” value is reported as 0.268.
In the case of RRIRNRPPRLPRPRPRPFQQPRP, the “shrunken log2 fold change” value is reported as -0.00931.
RRIRKRPPRLPRPRPRPTECPRP was tested, and the “shrunken log2 fold change” value was 0.119.
In the case of RRIRVRPPRLPRPRPRPHDMPRP, the “shrunken log2 fold change” value is reported as -0.0267.
In the case of RRIRGRPPRLPRPRPRPITRPRP, the “shrunken log2 fold change” value is reported as 0.133.
With RRIRTRPPRLPRPRPRPYTVPRP the “shrunken log2 fold change” value was -0.0341.
With RRIRIRPPRLPRPRPRPIVPPRP the “shrunken log2 fold change” value was -0.407.
For RRIRQRPPRLPRPRPRPMRAPRP, the “shrunken log2 fold change” value was 0.235.
With RRIRCRPPRLPRPRPRPKWKPRP the “shrunken log2 fold change” value was 0.329.
With RRIRIRPPRLPRPRPRPVYDPRP the “shrunken log2 fold change” value was -0.0144.
In the case of RRIRERPPRLPRPRPRPSDMPRP, the “shrunken log2 fold change” value is reported as -0.0552.
With RRIRWRPPRLPRPRPRPCDGPRP the “shrunken log2 fold change” value was 0.0333.
With RRIRYRPPRLPRPRPRPGLQPRP the “shrunken log2 fold change” value was -0.0156.
In the case of RRIRRRPPRLPRPRPRPSSYPRP, the “shrunken log2 fold change” value is reported as -0.0808.
RRIRMRPPRLPRPRPRPYGIPRP was tested, and the “shrunken log2 fold change” value was -0.0497.
With RRIRWRPPRLPRPRPRPWAMPRP the “shrunken log2 fold change” value was 0.0321.
With RRIRARPPRLPRPRPRPTVLPRP the “shrunken log2 fold change” value was 0.106.
For RRIRSRPPRLPRPRPRPHMEPRP, the “shrunken log2 fold change” value was -0.376.
For RRIRFRPPRLPRPRPRPAAMPRP, the “shrunken log2 fold change” value was 1.58.
With RRIRPRPPRLPRPRPRPFTNPRP the “shrunken log2 fold change” value was -0.286.
